Where a chain is given by its changes, count along the chain named.
T1: mouse CD137/Fc (mouse, UniProt P20334 24-187)
T1 construct: Coated on the ELISA plate at 2 µg/mL; also called murine CD137; not shown: Fc part
T1 sequence (looked up): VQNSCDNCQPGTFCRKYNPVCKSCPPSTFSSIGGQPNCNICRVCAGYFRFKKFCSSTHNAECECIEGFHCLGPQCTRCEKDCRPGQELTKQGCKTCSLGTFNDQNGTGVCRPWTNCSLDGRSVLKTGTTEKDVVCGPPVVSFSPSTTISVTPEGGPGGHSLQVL

B1: anti-CD137 antibody D6 (antibody, V domains shown)
VH: QMQLVQSGAEVKKPGASVKVSCKASGYTFTGYYMHWVRQAPGQGLEWMGWINPNSGGTNYAQKFQGRVTITRDTSASTAYMELSSLRSEDTAVYYCAREGEAVGLDLDYWGQGTLVTVSS
VL: SYELTQPPSVSVAPGKTARITCGGNNIGSKSVHWYQQKPGQAPVLVIYYDSDRPSGIPERFSGSNSGNTATLTISRVEAGDEADYYCQVWDSSSVVFGGGTQLTVL
notes: Fully human antibody, captured through anti-human Fc in SPR and detected with anti-human Lambda in ELISA
B2: anti-CD137 antibody MB3 (antibody, V domains shown)
VH: B1 VH with T28Q, F29M, T30R
VL: B1 VL
notes: Variant of D6 with the same light chain variable domain
B3: anti-CD137 antibody MB12 (antibody, V domains shown)
VH: B1 VH with T28S, F29L, T30E
VL: B1 VL
notes: as for B2
B4: anti-CD137 antibody MC8 (antibody, V domains shown)
VH: B1 VH with T28M, F29P, T30D, N54R, S55T, E101A, V103F, G104R, D106E, Y109A
VL: B1 VL
notes: as for B2
B5: anti-CD137 antibody MD4 (antibody, V domains shown)
VH: B1 VH with T28N, F29W, N54M, S55A, E101W, V103R, L105V, D106E, Y109M
VL: B1 VL
notes: as for B2
B6: anti-CD137 antibody MSA11 (antibody, V domains shown)
VH: B1 VH with T28S, I51V, N54K, E101W, V103R, G104R, L105I, Y109E
VL: B1 VL
notes: as for B2
B7: anti-CD137 antibody MSB7 (antibody, V domains shown)
VH: B1 VH with T28S, T30S, I51V, N54M, E101M, V103M, G104R, D106E, Y109K
VL: B1 VL
notes: as for B2
B8: anti-CD137 antibody MSC8 (antibody, V domains shown)
VH: B1 VH with T28N, T30G, I51V, N54K
VL: B1 VL
notes: as for B2
B9: anti-CD137 antibody MSH1 (antibody, V domains shown)
VH: B1 VH with T28N, T30G, I51V, N54H, V103W, Y109L
VL: B1 VL
notes: as for B2

What follows are binders tested against T2, Recombinant human CD137/His (human, UniProt Q07011 24-186) (assay: SPR (Biacore), antibody captured on anti-human Fc, human CD137/His as analyte, 1:1 fit).
T2 construct: Analyte of the SPR assay; also called 4-1BB; TNFRSF9; not shown: His tag
Method: This example illustrates binding affinities of exemplary anti-CD137 antibodies disclosed herein. Affinities were determined using surface plasmon resonance (Biacore). Briefly, anti-human Fc antibody (GE, BR-1008-39) was immobilized on CM5 sensor chip to approximately 1000 RU using standard NHS/EDC coupling methodology. Antibodies (about 10 μg/ml) were captured for 60 s at a flow rate 10 μl/min Recombinant human CD137/His was serially diluted in running buffer (HBS-EP). All measurements were conducted with a flow rate of 30 μL/min Surfaces were regenerated with 3M MgCl₂ for 60 s. A 1:1 (Langmuir) binding model was used to fit the data.

Binder	Kd [nM]	koff [s⁻¹]	kon [M⁻¹ s⁻¹]	Ka [M⁻¹]
B1	203	0.0814	401000	
B2		0.0678	296000	
B3		0.0669	433000	6.47e+06
B4		0.00628	208000	3.32e+07
B5	88.9	0.0512	576000	1.12e+07
B6		0.00631	135000	2.13e+07
B7		0.00756	456000	6.03e+07
B8		0.0615	282000	
B9		0.0324	369000	1.14e+07

These binders were tested against T1, mouse CD137/Fc (assay: ELISA, plate coated with mouse CD137/Fc at 2 µg/mL, detection with HRP anti-human Lambda, OD 450 nm).
Method: A Maxisorp plate was coated with recombinant human CD137/Fc or mouse CD137/Fc at 2 μg/mL at 4° C., overnight. The plate was blocked for 1 hour at room temperature, washed 3 times with PBS-Tween (PBST), then anti-CD137 antibodies (˜1 μg/mL) diluted in casein were added and incubated for 30 min with shaking. The plate was washed 3 times with PBST, horseradish peroxidase (HRP)-conjugated mouse anti-human Lambda (1:1000 in casein) was added, then 3,3′,5,5′-Tetramethylbenzidine (TMB) was added as substrate and developed about 5 min. 2M H₂SO₄ was used to stop the reaction and the OD was read at 450 nm.

Binder	binding result
B1	no binding
B2	no binding
B3	no binding
B8	no binding

Reference: patent publication US20160244528A1 (SORRENTO THERAPEUTICS, published 2016)
